Source: patent publication US20250333474A1

Molecular target: T1, H-2K^b of MHC class I of MutuDC1940 cells (without loaded OVA^257-264 peptide) (mouse)
T1 chain 1: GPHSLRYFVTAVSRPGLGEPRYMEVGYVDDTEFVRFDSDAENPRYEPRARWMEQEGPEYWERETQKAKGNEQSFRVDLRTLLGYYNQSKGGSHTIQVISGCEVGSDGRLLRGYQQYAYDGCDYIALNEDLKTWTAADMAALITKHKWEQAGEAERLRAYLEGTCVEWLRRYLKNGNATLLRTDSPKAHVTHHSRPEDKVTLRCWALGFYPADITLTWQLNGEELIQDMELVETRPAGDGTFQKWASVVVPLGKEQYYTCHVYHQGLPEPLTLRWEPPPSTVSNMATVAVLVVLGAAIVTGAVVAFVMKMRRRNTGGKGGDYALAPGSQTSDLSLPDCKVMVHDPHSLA
T1 chain 2: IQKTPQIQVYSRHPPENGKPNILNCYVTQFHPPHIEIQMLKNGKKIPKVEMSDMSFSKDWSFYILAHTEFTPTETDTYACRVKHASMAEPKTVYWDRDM
Experiment: peptide loading on MutuDC1940 cells for 24 h, read by 25D1.16 staining and flow cytometry
Details: remark: other sources report otherwise

SIINFEKL [OVA^257-264 antigen peptide]
saturate peptide concentration: 2 µg/mL
